Source: article PMC10586629, “Single B cell transcriptomics identifies multiple isotypes of broadly neutralizing antibodies against flaviviruses” (PLOS Pathogens, 2023)

Molecular target: T1, wild-type DENV2 16681 prM/E expressed in HEK-293T cells (Dengue virus 2, strain 16681, UniProt P29990)
T1 construct: also called WT DENV2 E protein; wild-type prM/E
Test: flow cytometry on cells
Conditions: one partner purified

B1: F25.S02 IgG1 (antibody, V domains shown)
VH: QVQLVQSGAEVKKPGSSAKVSCKASGGTFSSYAISWVRQAPGQGLEWMGSIMPIFGTVNYAQKFQGRVTITADESTSTAYMELSRLRSEDTAVYFCARGWGGNYRSADLWIYFDLWGQGTLVTVSS
VL: QSALTQPRSVSGSPGQSVTISCTGTSSDVGGYKYVSWYQQHPGKAPKLMIYDVTKRPSGVPDRFSGSKSGNTASLTISGLQADDEADYYCCSYAGSYTHVVFGGGTKLTVL
B1: binds.
